Results as given in patent publication CN111138528A (INST MILITARY MEDICINE ACADEMY MILITARY SCIENCES PLA, dated 2020).

How the values were obtained:
GP 95-295 = GP 95-295 (Ebola virus (EBOV), UniProt Q05320 95-295); assay: ELISA, truncated GP coated, 5A8 titrated (method of Example 2)
sGP = sGP (Ebola virus (EBOV), UniProt P60170 33-324); assay: as above
GP 33-310;463-558 = GP 33-310;463-558 (Ebola virus (EBOV), UniProt Q05320 33-310; Q05320 463-558); assay: as above
GP1 = GP1 (Ebola virus (EBOV), UniProt Q05320 33-501); assay: as above
GP 227-295 = GP 227-295 (Ebola virus (EBOV), UniProt Q05320 227-295); assay: as above
GP 158-295 = GP 158-295 (Ebola virus (EBOV), UniProt Q05320 158-295); assay: as above
EBOV GP = molecular target: T1, EBOV GP (Ebola virus (EBOV), UniProt Q05320 33-650); assay: ELISA, GP coated at 1 μg/mL, 5A8 from 10 μg/mL in 1:3 dilutions
T1 sequence: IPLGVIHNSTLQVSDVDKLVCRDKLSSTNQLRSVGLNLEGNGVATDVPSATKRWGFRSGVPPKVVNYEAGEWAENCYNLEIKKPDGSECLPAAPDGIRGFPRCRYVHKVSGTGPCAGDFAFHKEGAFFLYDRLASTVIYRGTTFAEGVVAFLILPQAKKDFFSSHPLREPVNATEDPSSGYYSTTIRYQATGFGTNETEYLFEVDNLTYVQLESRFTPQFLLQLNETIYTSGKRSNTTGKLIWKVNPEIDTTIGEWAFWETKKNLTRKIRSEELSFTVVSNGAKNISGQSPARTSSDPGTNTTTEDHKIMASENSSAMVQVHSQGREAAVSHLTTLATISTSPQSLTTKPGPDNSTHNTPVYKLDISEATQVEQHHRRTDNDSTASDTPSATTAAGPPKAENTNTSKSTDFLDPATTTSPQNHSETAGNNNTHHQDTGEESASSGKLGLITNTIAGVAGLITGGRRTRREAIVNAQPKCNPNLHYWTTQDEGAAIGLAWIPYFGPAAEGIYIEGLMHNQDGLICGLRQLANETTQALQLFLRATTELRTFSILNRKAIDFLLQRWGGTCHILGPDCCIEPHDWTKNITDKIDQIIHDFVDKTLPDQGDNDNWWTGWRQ

SUDV GP = molecular target: T2, SUDV GP (SUDV, UniProt Q7T9D9 33-650); assay: ELISA, GP coated at 1 μg/mL, 5A8 in 1:3 dilutions
T2 sequence: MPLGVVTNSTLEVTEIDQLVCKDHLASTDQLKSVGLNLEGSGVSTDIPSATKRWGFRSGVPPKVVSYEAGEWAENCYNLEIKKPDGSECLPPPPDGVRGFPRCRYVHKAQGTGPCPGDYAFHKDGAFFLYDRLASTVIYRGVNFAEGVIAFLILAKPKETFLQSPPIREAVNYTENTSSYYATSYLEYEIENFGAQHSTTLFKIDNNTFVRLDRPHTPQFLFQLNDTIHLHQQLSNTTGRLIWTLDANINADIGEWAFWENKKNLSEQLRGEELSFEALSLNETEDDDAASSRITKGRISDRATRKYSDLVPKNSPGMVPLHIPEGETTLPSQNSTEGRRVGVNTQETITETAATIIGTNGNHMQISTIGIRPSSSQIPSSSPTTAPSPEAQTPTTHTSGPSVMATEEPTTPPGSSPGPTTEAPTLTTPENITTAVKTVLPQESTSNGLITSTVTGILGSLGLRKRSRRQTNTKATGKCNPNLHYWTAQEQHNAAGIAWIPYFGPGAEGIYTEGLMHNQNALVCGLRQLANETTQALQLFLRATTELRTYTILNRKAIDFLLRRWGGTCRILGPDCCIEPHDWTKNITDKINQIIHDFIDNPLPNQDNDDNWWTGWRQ

RESTV GP = molecular target: T3, RESTV GP (RESTV, UniProt Q66799 34-651); assay: ELISA, GP coated at 1 μg/mL, 5A8 in 1:3 dilutions
T3 sequence: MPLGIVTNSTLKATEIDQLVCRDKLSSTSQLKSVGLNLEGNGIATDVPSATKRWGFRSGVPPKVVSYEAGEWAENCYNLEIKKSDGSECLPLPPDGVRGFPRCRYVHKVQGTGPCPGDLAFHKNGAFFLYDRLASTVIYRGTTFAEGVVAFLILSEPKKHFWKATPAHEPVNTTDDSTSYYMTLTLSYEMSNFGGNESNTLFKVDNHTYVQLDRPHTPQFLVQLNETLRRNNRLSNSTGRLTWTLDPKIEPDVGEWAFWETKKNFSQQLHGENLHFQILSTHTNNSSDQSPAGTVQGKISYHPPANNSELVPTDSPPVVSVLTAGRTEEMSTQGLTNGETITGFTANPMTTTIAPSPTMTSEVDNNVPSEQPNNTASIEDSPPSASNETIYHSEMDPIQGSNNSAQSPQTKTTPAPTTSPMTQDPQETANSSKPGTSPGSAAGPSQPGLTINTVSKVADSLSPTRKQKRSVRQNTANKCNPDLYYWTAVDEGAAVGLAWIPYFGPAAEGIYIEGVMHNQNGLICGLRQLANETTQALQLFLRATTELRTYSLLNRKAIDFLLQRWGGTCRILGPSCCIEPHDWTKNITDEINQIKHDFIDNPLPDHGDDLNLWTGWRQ

B1: 单克隆抗体5A8 (antibody, V domains shown)
VH: EVQLLESGGGLVKPGGSLRLSCAASGFTFSDYYMNWIRQAPGKGLEWVSYISSSGKTIYYADSVKGRFTISRDNAKKSLYLQMNSLRAEDTAVYYCARDREIVISTTILLGSDHYAMDVWGQGTTVTVSS
VL: DIQMTQSPFTLSASVGDRVTITCRASQSINSYLNWYQQKPGKAPKLLIYSASSLQSGVPSRFSGSGSGTDFTLTISSLQPEDFAIYYCQQTYRTPYTFGQGTKVEIKT
EC50 (GP 95-295): 7.1 ng/mL | EC50 (sGP): 7.5 ng/mL | EC50 (GP 33-310;463-558): 4.9 ng/mL | EC50 (GP1): 6.9 ng/mL | EC50 (GP 227-295): 0.0126 µg/mL | EC50 (GP 158-295): 0.02 µg/mL | EC50 (EBOV GP): 0.014 µg/mL | binding result (SUDV GP): no binding (tested: 10μg/mL (highest concentration tested)) | binding result (RESTV GP): no binding (tested: 10μg/mL (highest concentration tested))
